# Laboratory results: the supplement of paper PMC10567573
# B1: POMT2 (parent)
# chain: VLRSRIRFIHLVTGCVLGSSGKVL
# Variants of: B1
# Test: protein stability index of a GFP-peptide fusion (GPS, HEK-293T) (PSI 1-6); higher = more stable
# Settings: c terminus: a fixed tail appended
# 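Further: lentivirally expressed fusions sorted by FACS into six bins by GFP to DsRed ratio, PSI derived from sequencing read proportions per bin multiplied by bin number.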
row,Variant,protein stability index
1,VLRSRIRFIHLVTGCVIGSSGKVL,2.28
2,VLRSRIRFIHLVTGCVRGSSGKVL,2.35
3,VLRSRIRFYHLVTGCVLGSSGKVL,3.49
4,VLRSRIRFWHLVTGCVLGSSGKVL,1.71
5,VLRSRIRFVHLVTGCVLGSSGKVL,1.5
6,VLRSRIRFIHLLTGCVLGSSGKVL,2.13
7,VLRSRIRFIHLETGCVLGSSGKVL,4.33
8,VLRSRIRFIHLKTGCVLGSSGKVL,3.48
9,VLRSRIRFIHLWTGCVLGSSGKVL,1.94
10,VLRSRIRFIHLPTGCVLGSSGKVL,2.25
11,VLRSRIRFIHLSTGCVLGSSGKVL,2.53
12,VLRSRIRFIHLHTGCVLGSSGKVL,2.88
13,VLRSRIRFIHLMTGCVLGSSGKVL,3.2
14,VLRSRIRFIHLQTGCVLGSSGKVL,1.05
15,VLRSRIRFIHLFTGCVLGSSGKVL,3.19
16,VLRSRIRFIHLNTGCVLGSSGKVL,3.83
17,VLRSRIRFIHLGTGCVLGSSGKVL,1.84
18,VLRSRIRFIHLITGCVLGSSGKVL,2.81
19,VLRSRIRFIHLRTGCVLGSSGKVL,2.65
20,VLRSRIRFIHLTTGCVLGSSGKVL,4.51
21,VLRSRIRFIHLCTGCVLGSSGKVL,2.2
22,VLRSRIRFIHLVTGCVLGSSRKVL,2.47
23,VLRSRIRFIHLVTGCVLGSSNKVL,2.47
24,VLRSRIRFIHLVTGCVLGSSEKVL,3.64

row,Variant,protein stability index
1,VLRSRIRFIHLVTGCVLGSSDKVL,3.45
2,VLRSRIRFIHLVTGCVLGSSFKVL,2.53
3,VLRSRIRFIHLVTGCVLGSSIKVL,1.98
4,VLRSRIRFIHLVTGCVLGSSVKVL,2.17
5,VLRSRIRFIHLVTGCVLGSSMKVL,3.38
6,VLRSRIRFIHLVTGCVLGSSWKVL,2.96
7,VLRSRIRFIHLVTGCVLGSSSKVL,3.83
8,VLRSRIRFIHLVTGCVLGSSPKVL,2.65
9,VLRSRIRFIHLVTGCVLGSSHKVL,3.14
10,VLRSRIRFIHLVTGCVLGSSQKVL,3.44
11,VLRSRIRFIHLVTGCVLGSSAKVL,2.99
12,VLRSRIRFIHLVTGCVLGSSCKVL,3.88
13,VLRSRIRFIHLVTGCVLGSSTKVL,2
14,VLRSRIRFIHLVTGCVLGSSLKVL,3.1
15,VLRSRIRFIHPVTGCVLGSSGKVL,2.4
16,VLRSRIRFIHKVTGCVLGSSGKVL,2.13
17,VLRSRIRFIHIVTGCVLGSSGKVL,2.01
18,VLRSRIRFIHDVTGCVLGSSGKVL,2.48
19,VLRSRIRFIHAVTGCVLGSSGKVL,2.33
20,VLRSRIRFIHRVTGCVLGSSGKVL,1.73
21,VLRSRIRFIHTVTGCVLGSSGKVL,3.02
22,VLRSRIRFIHQVTGCVLGSSGKVL,2.87
23,VLRSRIRFIHMVTGCVLGSSGKVL,1.68
24,VLRSRIRFIHHVTGCVLGSSGKVL,2.02

row,Variant,protein stability index
1,VLRSRIRFIHGVTGCVLGSSGKVL,2.18
2,VLRSRIRFIHEVTGCVLGSSGKVL,2.96
3,VLRSRIRFIHSVTGCVLGSSGKVL,3.27
4,VLRSRIRFIHCVTGCVLGSSGKVL,3.74
5,VLRSRIRFIHNVTGCVLGSSGKVL,2.07
6,VLRSRIRFINLVTGCVLGSSGKVL,2.3
7,VLRSRIRFIMLVTGCVLGSSGKVL,1.99
8,VLRSRIRFIDLVTGCVLGSSGKVL,2.56
9,VLRSRIRFICLVTGCVLGSSGKVL,2.67
10,VLRSRIRFIYLVTGCVLGSSGKVL,2.84
11,VLRSRIRFIALVTGCVLGSSGKVL,2.56
12,VLRSRIRFIGLVTGCVLGSSGKVL,3.29
13,VLRSRIRFIRLVTGCVLGSSGKVL,2.5
14,VLRSRIRFITLVTGCVLGSSGKVL,2.92
15,VLRSRIRFIWLVTGCVLGSSGKVL,2.63
16,VLRSRIRFIILVTGCVLGSSGKVL,3.35
17,VLRSRIRFIFLVTGCVLGSSGKVL,3.38
18,VLRSRIRFIPLVTGCVLGSSGKVL,3.05
19,VLRSRIRFIKLVTGCVLGSSGKVL,1.58
20,VLRSRIRFILLVTGCVLGSSGKVL,1.87
21,VLRSRIRFIHLVTGCVLRSSGKVL,2.35
22,VLRSRIRFIHLVTGCVLMSSGKVL,2.78
23,VLRSRIRFIHLVTGCVLKSSGKVL,2
24,VLRSRIRFIHLVTGCVLLSSGKVL,2.69

row,Variant,protein stability index
1,VLRSRIRFIHLVTGCVLSSSGKVL,3.06
2,VLRSRIRFIHLVTGCVLVSSGKVL,1.38
3,VLRSRIRFIHLVTGCVLTSSGKVL,2.14
4,VLRSRIRFIHLVTGCVLESSGKVL,2.45
5,VLRSRIRFIHLVTGCVLCSSGKVL,2.32
6,VLRSRIRFIHLVTGCVLNSSGKVL,4.13
7,VLRSRIRFIHLVTGCVLASSGKVL,2.35
8,VLRSRIRFIHLVTGCVLISSGKVL,2.37
9,VLRSRIRFIHLVTGCVLDSSGKVL,1.67
10,VLRSRIRFIHLVYGCVLGSSGKVL,3.54
11,VLRSRIRFIHLVDGCVLGSSGKVL,2.35
12,VLRSRIRFIHLVLGCVLGSSGKVL,3.22
13,VLRSRIRFIHLVVGCVLGSSGKVL,3.37
14,VLRSRIRFIHLVEGCVLGSSGKVL,2.08
15,VLRSRIRFIHLVAGCVLGSSGKVL,2.01
16,VLRSRIRFIHLVHGCVLGSSGKVL,2.02
17,VLRSRIRFIHLVIGCVLGSSGKVL,2.31
18,VLRSRIRFIHLVGGCVLGSSGKVL,1.51
19,VLRSRIRFIHLVQGCVLGSSGKVL,2.86
20,VLRSRIRFIHLVPGCVLGSSGKVL,4.82
21,VLRSRIRFIHLVKGCVLGSSGKVL,2.22
22,VLRSRIRFIHLVFGCVLGSSGKVL,1.64
